What was measured:
HEK293T cells = assay: Annexin V apoptosis assay in transfected HEK293T cells +/- 4OHT; format: cell-based, Human; details: for cell death observed: 1 uM 4OHT or solvent control; for inducibility of apoptosis with 4OHT: 200 nM or 1 uM 4OHT, ~18-24 hours
Protocol: (§1) Human Embryonic Kidney (HEK) 293T cells were transfected with 1 ug per 1E6 cells using Lipofectamine 3000 and incubated in DMEM+10% FBS+1% Pen/Strep media for 4 hours before adding 1 uM 4-hydroxytamoxifen (+4OHT) or solvent control (No 4OHT). The cells were incubated with 4OHT for 18-24 hours. The cells were then stained with Annexin V to detect apoptotic cells, as well as DAPI to detect dead cells.
HEK293T cells were transfected with varying amounts of DNA of a vector control (pLenti), with construct A tBID (lacking a LBD, C150, see FIG. 5B), or with C-ESR1 or D-ESR1 (FIG. 10, bottom), and assayed for apoptosis using either 200 nM OHT or 1 μM 4OHT.
To determine the effect of amount of DNA as well as 4OHT concentration on apoptosis induction, we titrated both the amount of DNA (2, 3, or 6 ug DNA per 1E6 cells) and the concentration of 4OHT. 500,000 cells HEK293T cells were plated in a 24-well plate. ˜2 hours after plating, appropriate amounts of DNA were transfected using Lipofectamine 3000 and incubated for 4 hours. Either ethanol solvent control, 200 nM 4OHT, or 1 uM 4OHT was added to the transfected cells then incubated for ˜18-24 hours. The cells were then stained as in Example 4. Intriguingly, C-ESR1 was not inducible in HEK293 Ts, unlike in Jurkat cells (Example 6, FIGS. 7 and 11A-B).

Jurkat cells = assay: Annexin V / PI apoptosis assay in transfected Jurkat cells +/- 4OHT; format: cell-based; details: for background cell death / induction of apoptosis with 4OHT: 2 ug DNA per 1E6 cells, 20 hours; for background cell death: ethanol solvent control; for inducible apoptosis with 4OHT / background apoptosis / killing: 1 ug DNA per 1E6 cells; for inducible apoptosis with 4OHT: 1 uM 4OHT vs solvent control, 18-24 hrs; for background apoptosis / killing: solvent control; for induction of apoptosis with 4OHT: 200 nM or 1 uM 4OHT
Protocol: as §1, with “Jurkat immortalized T lymphocytes” for “Human Embryonic Kidney (HEK) 293T cells”, “Neon electroporation” for “Lipofectamine 3000”, “RPMI+20% FBS+0.1%” for “DMEM+10% FBS+1%”, “propidium iodide (PI)” for “DAPI”
Jurkat cells were transfected with 1 ug of DNA per 1E6 cells using Neon electroporation, treated +/−4OHT for 18-24 hrs, and stained with Annexin V to detect apoptotic cells, as well as PI to detect dead cells (FIG. 5A).
One possibility is that the BID α3 and α6 helices are necessary and sufficient for tBID function. Therefore, we made various truncations that included α3 and α6, as well as various other helices. Jurkat cells were transfected with 1 ug DNA per 1E6 cells, treated with 4OHT or solvent control, then stained as in Example 4. […] One exception was the ESR-D tBID fusion construct, which has the Bid α3, α6 and α7 helices (FIG. 6). 0.3 uM staurosporine (STP) and DMSO solvent control were included as controls.
Jurkat cells were transfected with 1 ug DNA per 1E6 cells, treated with 4OHT or solvent control, then stained as in Example 4. The fold change in apoptosis upon 4OHT addition was determined by dividing the percent Annexin V positive cells treated with 4OHT by the percent Annexin V positive cells treated with a solvent control (FIG. 8). The fold change was calculated from one experiment. As electroporation of empty vector always results in some background death of cells, percent Annexin V positive cells of pLenti was used as the background and subtracted from total percentage to obtain “background subtracted” fold change values.
To determine the effect of 4OHT concentration on apoptosis induction in Jurkat cells, Jurkat cells were transfected with 2 ug DNA per 1E6 cells. 4 hours post-transfection, either ethanol solvent control, 200 nM 4OHT, or 1 uM 4OHT was added to the transfected cells then incubated for 20 hours. The cells were then stained with Annexin V and PI to measure cell death.

primary T cells [1] = assay: Caspase-3/7 Green time course of 4OHT-mediated death in transduced primary T cells; format: cell-based
Protocol: To characterize tamoxifen-induced killing activity in transfected Jurkat cells over time, Jurkat cells were transfected with 1 ug DNA per 1 E6 cells as described previously above. 24 hours post-transfection, Jurkat cells were harvested and resuspended in complete RPMI media containing 10% FBS, 1% Pen/Strep, and 5 uM Caspase-3/7 Green Reagent (Essen Bioscience 4440). The resuspended cells were plated onto poly-L-ornithine treated 384-well plates and left at room temperature for 30 minutes. Then, RPMI+10% FBS+1% Pen/Strep+5 uM Caspase-3/7 Green Reagent containing appropriate 2×4OHT or EtOH was added to the cells. Induction of apoptosis was measured using the Caspase-3/7 dye, which couples caspase-3/7 recognition motif with a DNA intercalating dye. Cells turn green if and only if caspase-3/7-mediated apoptosis occurs. The cells were imaged using the IncuCyte S3 Live-Cell Analysis System.
Primary T cells transduced with D-ESR1 were prepared similarly to Jurkat cells in Example 9 and 4OHT-mediated death was measured using the Caspase-3/7 Green Reagent as described in Example 9.

primary T cells [2] = assay: Annexin V / PI apoptosis assay in transduced primary T cells +/- 4OHT; format: cell-based; details: lentiviral transduction, 20 hours
Protocol: To characterize tBID-ESR1 safety switch function in primary T cells, D504C cells were transduced with lentiviral constructs containing either C-ESR1 or D-ESR1. The cells were maintained and expanded in media containing 300 IU/mL IL-2. To induce apoptosis, 1E6 cells were resuspended in 1 mL of LymphoONE media containing 1% human serum and 1 uM 4OHT. As a solvent control, same volume of ethanol was added to the cells. 20 hours after 4OHT addition, cells were stained with Annexin V and PI to measure cell death as described in Example 9.

[3] = HEK293T, 1 ug per 1E6 cells, 18-24 hours
[4] = HEK293T, 2, 3, or 6 ug DNA per 1E6 cells

| Molecule | cell death observed (HEK293T cells; [3]) | background cell death (Jurkat cells) | inducible apoptosis with 4OHT (Jurkat cells) | background apoptosis / killing (Jurkat cells) | induction of apoptosis with 4OHT (Jurkat cells) | inducibility of apoptosis with 4OHT (HEK293T cells; [4]) | further results |
| --- | --- | --- | --- | --- | --- | --- | --- |
| C150: truncated BID (tBID), a potent apoptosis inducer; construct A tBID lacking a LBD (protein, UniProt P55957 61-195, looked up, BH3-interacting domain death agonist p15) BH3-interacting domain death …: GNRSSHSRLGRIEADSESQEDIIRNIARHLAQVGDSMDRSIPPGLVNGLALQLRNTSRSEEDRNRDLATALEQLLQAYPRDMEKEKTMLVLALLLAKKVASHTPSLLRDVFHTTVNFINQNLRTYVRSLARNGMD | significant death | – | – | – | – | – | Annexin V+ cells (HEK293T cells; HEK293T, 1 ug per 1E6 cells, regardless of the presence of tamoxifen, 18-24 hours): 60-70% |
| ESR1-C: fusion protein SEQ ID NO: 6; ESR1 LBD fused to N-terminus of tBID truncation C (protein, tBID fusion protein C3443 (ESR1-C)) MKKNSLALSLTADQMVSALLDAEPPILYSEYDPTRPFSEASMMGLLTNLADRELVHMINWAKRVPGFVDLTLHDQVHLLECAWLEILMIGLVWRSMEHPGKLLFAPNLLLDRNQGKCVEGMVEIFDMLLATSSRFRMMNLQGEEFVCLKSIILLNSGVYTFLSSTLKSLEEKDHIHRVLDKITDTLIHLMAKAGLTLQQQHQRLAQLLLILSHIRHMSNKGMEHLYSMKCKNVVPLYDLLLEMLDAHRLHAPTGSSQEDIIRNIARHLAQVGDSMDRSIPPGLVNGLALQLRNTSRSEEDRNRDLATALEQLLQAYPRDMEKEKTMLVLALLLAKKVASHTP | – | relatively high background levels of cell death | – | – | – | – | – |
| D-ESR1: fusion protein SEQ ID NO: 5; tBID helices α3, α6 and α7 fused to the N-terminus of ESR1 LBD (protein, tBID fusion protein C3454 (D-ESR1), tBID helices α3, α6 and α7 fused to the N-terminus of ESR1 LBD) SQEDIIRNIARHLAQVGDSMDRSIPPGEKTMLVLALLLAKKVASHTPSLLRDVFHTTVNFINQNLGSKKNSLALSLTADQMVSALLDAEPPILYSEYDPTRPFSEASMMGLLTNLADRELVHMINWAKRVPGFVDLTLHDQVHLLECAWLEILMIGLVWRSMEHPGKLLFAPNLLLDRNQGKCVEGMVEIFDMLLATSSRFRMMNLQGEEFVCLKSIILLNSGVYTFLSSTLKSLEEKDHIHRVLDKITDTLIHLMAKAGLTLQQQHQRLAQLLLILSHIRHMSNKGMEHLYSMKCKNVVPLYDLLLEMLDAHRLHAPT | – | – | showed inducible apoptosis | low background apoptosis | consistently induced apoptosis | increases the window of induction | background apoptosis, Caspase-3/7 Green Reagent (primary T cells [1]): low background; inducible apoptosis, Caspase-3/7 Green Reagent (primary T cells [1]; 4OHT): inducible apoptosis is seen; inducible killing with 4OHT, Annexin V and PI (primary T cells [2]; 1 uM 4OHT): greatest inducible killing; background cell death, Annexin V and PI (primary T cells [2]; ethanol solvent control): low background; inducibility of apoptosis with 4OHT (HEK293T cells; HEK293T, 2, 3, or 6 ug DNA per 1E6 cells, listed as C3454): retained activity across cell types; background apoptosis (HEK293T cells; HEK293T, 2, 3, or 6 ug DNA per 1E6 cells, ethanol solvent control): does not increase background |
| ESR1-D: fusion protein SEQ ID NO: 4; ESR1 LBD fused to N-terminus of tBID with Bid α3, α6 and α7 helices (protein, tBID fusion protein C3445 (ESR1-D), ESR1 LBD fused to N-terminus of tBID with Bid α3, α6 and α7 helices) MKKNSLALSLTADQMVSALLDAEPPILYSEYDPTRPFSEASMMGLLTNLADRELVHMINWAKRVPGFVDLTLHDQVHLLECAWLEILMIGLVWRSMEHPGKLLFAPNLLLDRNQGKCVEGMVEIFDMLLATSSRFRMMNLQGEEFVCLKSIILLNSGVYTFLSSTLKSLEEKDHIHRVLDKITDTLIHLMAKAGLTLQQQHQRLAQLLLILSHIRHMSNKGMEHLYSMKCKNVVPLYDLLLEMLDAHRLHAPTGSSQEDIIRNIARHLAQVGDSMDRSIPPGEKTMLVLALLLAKKVASHTPSLLRDVFHTTVNFINQNL | – | relatively high background levels of cell death | high inducibility | low background killing | robustly induced at either 200 nM or 1 uM 4OHT | – | – |
| C-ESR1: fusion protein SEQ ID NO: 7; tBID helices α3, α4, α5 and α6 fused to the N-terminus of ESR1 LBD (protein, tBID fusion protein C3452 (C-ESR1), tBID helices α3, α4, α5 and α6 fused to the N-terminus of ESR1 LBD) MSQEDIIRNIARHLAQVGDSMDRSIPPGLVNGLALQLRNTSRSEEDRNRDLATALEQLLQAYPRDMEKEKTMLVLALLLAKKVASHTPGSKKNSLALSLTADQMVSALLDAEPPILYSEYDPTRPFSEASMMGLLTNLADRELVHMINWAKRVPGFVDLTLHDQVHLLECAWLEILMIGLVWRSMEHPGKLLFAPNLLLDRNQGKCVEGMVEIFDMLLATSSRFRMMNLQGEEFVCLKSIILLNSGVYTFLSSTLKSLEEKDHIHRVLDKITDTLIHLMAKAGLTLQQQHQRLAQLLLILSHIRHMSNKGMEHLYSMKCKNVVPLYDLLLEMLDAHRLHAPT | – | – | showed inducible apoptosis | – | – | not inducible | – |
| full length Bid: full length Bid expressed alone in HEK293T cells (protein, UniProt P55957 1-195, looked up, full-length, full length Bid expressed alone in HEK293T cells) MDCEVNNGSSLRDECITNLLVFGFLQSCSDNSFRRELDALGHELPVLAPQWEGYDELQTDGNRSSHSRLGRIEADSESQEDIIRNIARHLAQVGDSMDRSIPPGLVNGLALQLRNTSRSEEDRNRDLATALEQLLQAYPRDMEKEKTMLVLALLLAKKVASHTPSLLRDVFHTTVNFINQNLRTYVRSLARNGMD | negligible death | – | – | – | – | – | – |

From US12599665B2, “Gene fusions for control of genetically modified cells” (A2 Biotherapeutics, Inc., priority 2020, dated 2026)
